Data on two molecules can be found in article PMC9825171 (Nucleic Acids Research, 2022).

Some targets named below: RBPJ (53–474) Q333A (Mus musculus, UniProt P31266 53-474, Q333A); RBPJ (53–474) V263A (Mus musculus, UniProt P31266 53-474, V263A); RBPJ (53–474) K275M (Mus musculus, UniProt P31266 53-474, K275M); RBPJ (53–474) E260K (Mus musculus, UniProt P31266 53-474, E260K).
Common to all, as to assay: ITC
In general terms: Isothermal titration calorimetry measures the heat released or taken up as one component is titrated into another.

Test [1] has as its target T1, human L3MBTL3 fragment 1–523 (human, UniProt Q96JM7-2 1-523).
T1 sequence (looked up): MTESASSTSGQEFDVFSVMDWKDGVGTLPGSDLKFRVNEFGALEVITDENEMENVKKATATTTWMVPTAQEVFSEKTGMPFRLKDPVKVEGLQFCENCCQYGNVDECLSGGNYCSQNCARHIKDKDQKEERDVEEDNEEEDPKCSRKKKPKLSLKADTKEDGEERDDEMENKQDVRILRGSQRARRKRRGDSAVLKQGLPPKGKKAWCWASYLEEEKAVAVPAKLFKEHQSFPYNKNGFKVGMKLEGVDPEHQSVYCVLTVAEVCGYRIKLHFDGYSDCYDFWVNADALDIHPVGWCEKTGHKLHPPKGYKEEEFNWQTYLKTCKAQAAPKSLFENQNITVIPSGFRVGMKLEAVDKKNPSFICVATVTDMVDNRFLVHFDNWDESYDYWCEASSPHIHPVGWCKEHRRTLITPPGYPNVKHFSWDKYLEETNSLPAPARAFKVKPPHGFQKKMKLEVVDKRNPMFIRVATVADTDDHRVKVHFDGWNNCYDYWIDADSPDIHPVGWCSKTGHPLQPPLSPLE

Test [2] has as its target T2, RBPJ (53–474) E260A (Mus musculus, UniProt P31266 53-474, E260A).
The target of test [3] is T2, RBPJ (53–474) E260A. This is another data set of the same source.

Sequence of RBPJ (53–474) Q333A (P31266 53-474 Q333A): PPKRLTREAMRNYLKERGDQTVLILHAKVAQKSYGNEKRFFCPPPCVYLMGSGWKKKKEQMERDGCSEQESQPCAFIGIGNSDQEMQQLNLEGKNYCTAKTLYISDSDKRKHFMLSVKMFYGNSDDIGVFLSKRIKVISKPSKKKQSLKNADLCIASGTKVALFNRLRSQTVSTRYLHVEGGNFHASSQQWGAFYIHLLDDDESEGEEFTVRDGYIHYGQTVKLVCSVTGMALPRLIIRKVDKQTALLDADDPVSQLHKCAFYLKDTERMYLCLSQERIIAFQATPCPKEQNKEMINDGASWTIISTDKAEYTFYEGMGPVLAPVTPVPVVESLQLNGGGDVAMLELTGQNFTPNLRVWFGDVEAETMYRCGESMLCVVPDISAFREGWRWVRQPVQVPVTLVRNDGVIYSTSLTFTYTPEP
T2 sequence (P31266 53-474 E260A): as the sequence (P31266 53-474 Q333A) above, with E208A, A281Q counted along it
Sequence of RBPJ (53–474) V263A (P31266 53-474 V263A): as the sequence (P31266 53-474 Q333A) above, with V211A, A281Q counted along it
Sequence of RBPJ (53–474) K275M (P31266 53-474 K275M): as the sequence (P31266 53-474 Q333A) above, with K223M, A281Q counted along it
Sequence of RBPJ (53–474) E260K (P31266 53-474 E260K): as the sequence (P31266 53-474 Q333A) above, with E208K, A281Q counted along it

B1: Mus musculus CSL (RBPJ), residues 53–474 (structural core domain), wild type, as used for ITC (domain or fragment)
chain: not shown
One may read the Kd as a measure of binding affinity in units of concentration. With B1, in test [1], the Ka was found to be 540000 M⁻¹ and the Kd was 1.9 µM.

For the molecule MENVKKATATTTWMVPTAQ (peptide, UniProt Q96JM7-2 52-70, looked up) [L3MBTL3 (52–70) wild-type peptide (19-mer)], the Kd with RBPJ (53–474) E260A [2] amounted to 3.73 µM; with RBPJ (53–474) Q333A, 1.3 µM; in the test with RBPJ (53–474) V263A, 3 µM; with RBPJ (53–474) K275M it was 4.2 µM. Further, the Ka came out at 760000 M⁻¹ with RBPJ (53–474) Q333A; 260000 M⁻¹ in the test with RBPJ (53–474) E260A [3]; 330000 M⁻¹ in the test with RBPJ (53–474) V263A; 240000 M⁻¹ with RBPJ (53–474) K275M; 220000 M⁻¹ with RBPJ (53–474) E260K. Also, the dH is -10.6 kcal/mol with RBPJ (53–474) Q333A; -13.6 kcal/mol with RBPJ (53–474) E260A [3]; -10.3 kcal/mol with RBPJ (53–474) V263A; -13.7 kcal/mol with RBPJ (53–474) K275M; -16.8 kcal/mol with RBPJ (53–474) E260K.
